From PMC6526471 come the findings set out here.

The target in the experiment is Patched (Ptc) receptor on C3H10T1/2 cells (mouse (endogenous in C3H10T1/2)) (UniProt Q61115).
Chain of UniProt Q61115 (Q61115 whole entry): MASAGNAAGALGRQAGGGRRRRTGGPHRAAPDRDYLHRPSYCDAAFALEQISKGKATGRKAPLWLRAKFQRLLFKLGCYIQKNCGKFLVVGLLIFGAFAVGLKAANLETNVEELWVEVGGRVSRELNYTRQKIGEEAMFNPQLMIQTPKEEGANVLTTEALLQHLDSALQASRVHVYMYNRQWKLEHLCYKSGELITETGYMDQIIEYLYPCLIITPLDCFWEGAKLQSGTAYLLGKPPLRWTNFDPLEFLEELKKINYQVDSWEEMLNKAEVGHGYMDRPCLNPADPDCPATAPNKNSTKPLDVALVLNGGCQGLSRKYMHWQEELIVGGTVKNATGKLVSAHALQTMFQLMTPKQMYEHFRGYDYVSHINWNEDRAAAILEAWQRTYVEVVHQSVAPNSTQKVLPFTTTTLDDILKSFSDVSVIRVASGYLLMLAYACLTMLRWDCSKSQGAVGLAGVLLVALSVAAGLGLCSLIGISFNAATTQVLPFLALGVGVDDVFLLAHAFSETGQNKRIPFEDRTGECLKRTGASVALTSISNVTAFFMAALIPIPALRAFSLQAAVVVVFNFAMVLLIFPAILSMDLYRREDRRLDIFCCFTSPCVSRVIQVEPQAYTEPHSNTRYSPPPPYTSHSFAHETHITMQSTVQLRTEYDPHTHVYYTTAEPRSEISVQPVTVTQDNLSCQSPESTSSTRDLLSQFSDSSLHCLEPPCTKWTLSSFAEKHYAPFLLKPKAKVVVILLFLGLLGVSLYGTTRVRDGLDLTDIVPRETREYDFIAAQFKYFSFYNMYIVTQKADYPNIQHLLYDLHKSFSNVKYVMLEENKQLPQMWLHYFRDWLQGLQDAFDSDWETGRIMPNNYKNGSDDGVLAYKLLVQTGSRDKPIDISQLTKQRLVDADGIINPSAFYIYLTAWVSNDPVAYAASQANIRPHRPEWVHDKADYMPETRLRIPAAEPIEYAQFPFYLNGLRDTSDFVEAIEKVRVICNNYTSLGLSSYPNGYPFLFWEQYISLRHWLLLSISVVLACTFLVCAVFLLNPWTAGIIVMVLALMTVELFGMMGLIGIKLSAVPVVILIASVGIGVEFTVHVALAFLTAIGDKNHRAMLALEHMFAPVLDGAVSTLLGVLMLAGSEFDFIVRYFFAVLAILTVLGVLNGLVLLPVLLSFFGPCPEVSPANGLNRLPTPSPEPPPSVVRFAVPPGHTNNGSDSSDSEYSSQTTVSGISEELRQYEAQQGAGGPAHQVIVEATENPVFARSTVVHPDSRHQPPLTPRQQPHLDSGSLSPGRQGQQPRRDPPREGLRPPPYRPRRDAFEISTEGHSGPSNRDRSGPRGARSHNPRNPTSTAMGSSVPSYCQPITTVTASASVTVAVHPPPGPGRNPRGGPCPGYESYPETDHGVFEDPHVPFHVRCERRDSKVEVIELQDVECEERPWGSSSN

Regarding “Sonic hedgehog (Shh), soluble form released from Shh-expressing Panc1 cells (ligand)”, the Shh-induced C3H10T1/2 differentiation with 5 ug/mL HSI (0.7 sulfates/disaccharide), relative to no HS/heparin (100%) turned out to be 70%; the Shh-induced C3H10T1/2 differentiation with 5 ug/mL HSII (1.2 sulfates/disaccharide), relative to no HS/heparin (100%) is 58%; the Shh-induced C3H10T1/2 differentiation with 5 ug/mL HSIII (1.4 sulfates/disaccharide), relative to no HS/heparin (100%) amounted to 38%; the Shh-induced C3H10T1/2 differentiation with 5 ug/mL dp30 heparin, relative to no HS/heparin (100%) was 26%. Further, the Shh-induced C3H10T1/2 differentiation with 5 ug/mL heparin, relative to no HS/heparin (100%) was found to be 27%.
